According to patent publication US20250034266A1:

Assays:
human CCR8 (human) [1] = target: human CCR8 (human) (UniProt P51685); assay: flow cytometry on TALL-1 cells (endogenous CCR8)
[2] = target: cynomolgus CCR8 (cynomolgus) (UniProt G7NYJ2); assay: FACS on HEK293-cynomolgus CCR8 cells
human CCR8 (human) [3] = target: human CCR8 (human) (UniProt P51685); assay: FACS on HEK293-human CCR8 cells
human CCR4 (human) = target: T1, human CCR4 (human) (UniProt P51679); assay: FACS on ExpiCHO-S-human CCR4 cells
T1 sequence (looked up): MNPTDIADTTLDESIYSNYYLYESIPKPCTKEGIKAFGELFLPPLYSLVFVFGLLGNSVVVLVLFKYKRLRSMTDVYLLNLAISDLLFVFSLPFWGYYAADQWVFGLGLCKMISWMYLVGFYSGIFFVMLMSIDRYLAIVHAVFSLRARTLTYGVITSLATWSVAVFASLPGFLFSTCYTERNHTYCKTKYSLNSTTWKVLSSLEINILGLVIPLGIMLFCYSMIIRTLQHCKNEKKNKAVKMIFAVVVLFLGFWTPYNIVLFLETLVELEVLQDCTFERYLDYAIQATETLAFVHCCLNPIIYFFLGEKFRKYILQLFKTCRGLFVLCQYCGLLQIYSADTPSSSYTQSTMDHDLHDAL

human CCR8 (human) [4] = target: human CCR8 (human) (UniProt P51685); assay: FACS, competition with AF647-human CCL1 on CHO-K1-human CCR8 cells
human CCR8 (human) [5] = target: human CCR8 (human) (UniProt P51685); assay: FACS on HEK293-human CCR8 cells; remark: listed apart in the source
human CCR8 (human) [6] = target: human CCR8 (human) (UniProt P51685); assay: FACS, competition with CCL1 on CHO-K1-human CCR8 cells
[7] = target: cynomolgus CCR8 (cynomolgus) (UniProt G7NYJ2); assay: FACS on HEK293-cynomolgus CCR8 cells; remark: listed apart in the source
human CCR8 (human) [8] = target: human CCR8 (human) (UniProt P51685); assay: FACS, competition with AF647-human CCL1 on CHO-K1-human CCR8 cells; remark: listed apart in the source
[9] = target: cynomolgus CCR8 (cynomolgus) (UniProt G7NYJ2); assay: FACS on HEK293-cynomolgus CCR8 cells; remark: listed apart in the source
human CCR8 (human) [10] = target: human CCR8 (human) (UniProt P51685); assay: FACS, competition with CCL1 on CHO-K1-human CCR8 cells; remark: listed apart in the source
human CCR8 (human) [11] = target: human CCR8 (human) (UniProt P51685); assay: FACS on HuT78 cells (endogenous human CCR8)
human CCR8 (human) [12] = target: human CCR8 (human) (UniProt P51685); assay: FACS on HEK293-human CCR8 cells; remark: listed apart in the source
human CCR8 (human) [13] = target: human CCR8 (human) (UniProt P51685); assay: FACS on HuT78 cells (endogenous human CCR8); remark: listed apart in the source
human CCR1 (human) = target: T2, human CCR1 (human) (UniProt P32246); assay: FACS on ExpiCHO-S-human CCR1 cells
T2 sequence (looked up): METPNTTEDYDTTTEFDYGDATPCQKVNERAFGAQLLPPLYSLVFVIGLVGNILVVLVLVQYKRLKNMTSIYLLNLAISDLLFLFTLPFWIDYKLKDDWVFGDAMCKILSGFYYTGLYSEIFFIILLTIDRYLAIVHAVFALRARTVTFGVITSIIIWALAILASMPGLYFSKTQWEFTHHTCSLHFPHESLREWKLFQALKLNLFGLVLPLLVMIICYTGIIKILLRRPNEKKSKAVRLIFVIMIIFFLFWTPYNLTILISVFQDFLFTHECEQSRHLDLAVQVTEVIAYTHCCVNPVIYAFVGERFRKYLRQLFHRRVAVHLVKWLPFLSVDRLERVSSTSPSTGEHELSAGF

human CCR8 (human) [14] = target: human CCR8 (human) (UniProt P51685); assay: FACS, competition with AF647-human CCL1 on CHO-K1-human CCR8 cells; remark: listed apart in the source
human CCR8 (human) [15] = target: human CCR8 (human) (UniProt P51685); assay: FACS on CHO-K1-human CCR8 cells
[16] = target: cynomolgus CCR8 (cynomolgus) (UniProt G7NYJ2); assay: FACS on ExpiCHO-S-cynomolgus CCR8 cells
[17] = target: cynomolgus CCR8 (cynomolgus) (UniProt G7NYJ2); assay: FACS on HEK293-cynomolgus CCR8 cells; remark: listed apart in the source
human CCR8 (human) [18] = target: human CCR8 (human) (UniProt P51685); assay: FACS, competition with AF647-human CCL1 on CHO-K1-human CCR8 cells; remark: listed apart in the source
human CCR8 (human) [19] = target: human CCR8 (human) (UniProt P51685); assay: FACS on HEK293-human CCR8 cells; remark: listed apart in the source
[20] = target: cynomolgus CCR8 (cynomolgus) (UniProt G7NYJ2); assay: FACS on HEK293-Cynomolgus CCR8 cells

Chain of human CCR8 (human) (P51685 whole entry): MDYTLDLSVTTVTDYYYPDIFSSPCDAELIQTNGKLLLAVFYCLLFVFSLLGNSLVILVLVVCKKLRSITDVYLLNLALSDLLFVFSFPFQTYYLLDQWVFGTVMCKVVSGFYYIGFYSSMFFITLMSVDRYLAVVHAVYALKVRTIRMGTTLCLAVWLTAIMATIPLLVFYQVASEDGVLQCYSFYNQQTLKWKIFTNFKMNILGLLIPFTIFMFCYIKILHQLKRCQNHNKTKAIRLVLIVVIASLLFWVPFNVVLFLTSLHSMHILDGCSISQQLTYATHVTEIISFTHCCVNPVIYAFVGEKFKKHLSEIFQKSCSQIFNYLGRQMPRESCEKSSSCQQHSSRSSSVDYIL
Chain of cynomolgus CCR8 (cynomolgus) (G7NYJ2 entry or part of it): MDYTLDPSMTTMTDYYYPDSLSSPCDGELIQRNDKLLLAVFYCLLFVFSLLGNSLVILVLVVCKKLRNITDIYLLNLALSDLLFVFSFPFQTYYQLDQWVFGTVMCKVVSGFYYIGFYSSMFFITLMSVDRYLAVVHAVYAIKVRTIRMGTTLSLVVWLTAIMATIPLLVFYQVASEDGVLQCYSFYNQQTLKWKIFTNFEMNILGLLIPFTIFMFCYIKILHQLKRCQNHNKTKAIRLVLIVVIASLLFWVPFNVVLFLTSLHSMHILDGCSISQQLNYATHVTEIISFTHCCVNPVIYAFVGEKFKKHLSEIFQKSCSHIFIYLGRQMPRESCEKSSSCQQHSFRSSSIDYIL

Substance | Max MFI (human CCR8 (human) [3]) [MFI] | Max MFI (human CCR4 (human)) [MFI] | Max Inhibition (%) (human CCR8 (human) [4]) | Max MFI (human CCR8 (human) [5]) [MFI] | Max MFI [7] [MFI] | Max Inhibition (%) (human CCR8 (human) [8]) | Max MFI [9] [MFI] | Max MFI (human CCR8 (human) [12]) [MFI] | Max MFI (human CCR1 (human)) [MFI] | Max Inhibition (%) (human CCR8 (human) [14]) | Max MFI [16] [MFI] | Max MFI [17] [MFI] | Max MFI (human CCR8 (human) [19]) [MFI] | other results
HuIgG1-G1m Isotype (antibody) | – | – | – | – | – | – | – | – | – | – | – | – | – | Maximum MFI (human CCR8 (human) [1]): 5.96 MFI
Human IgG1 (antibody) | 167 | 7 | -4.1 | 222 | 14300 | 27.4 | 331 | 180 | 20.3 | -13 | 13 | 120 | – | Max MFI [2]: 5690 MFI; Max Inhibition (%) (human CCR8 (human) [6]): -4.58%; Max Inhibition (%) (human CCR8 (human) [10]): 17.8%; Max MFI (human CCR8 (human) [11]): 7820 MFI; Max MFI (human CCR8 (human) [13]): 16900 MFI; Max MFI (human CCR8 (human) [15]): 3860 MFI
Mouse IgG2a (antibody) | 49 | 6.6 | 2.1 | 261 | 47 | 28.7 | 40 | 18 | 267 | -13.9 | 5 | 158 | 11 | Max Inhibition (%) (human CCR8 (human) [18]): 12.3%
Mouse IgG2a isotype control (antibody) | – | – | – | – | – | – | – | – | – | – | – | – | 349 | Max MFI [20]: 396 MFI
